Assay results taken from IntAct's records for PubMed 29892012.

B1: Glycodelin (Homo sapiens), P09466 (parent)
chain: MLCLLLTLGVALVCGVPAMDIPQTKQDLELPKLAGTWHSMAMATNNISLMATLKAPLRVHITSLLPTPEDNLEIVLHRWENNSCVEKKVLGEKTENPKKFKINYTVANEATLLDTDYDNFLFLCLQDTTTPIQSMMCQYLARVLVEDDEIMQGFIRAFRPLPRHLWYLLDLKQMEEPCRF
partner: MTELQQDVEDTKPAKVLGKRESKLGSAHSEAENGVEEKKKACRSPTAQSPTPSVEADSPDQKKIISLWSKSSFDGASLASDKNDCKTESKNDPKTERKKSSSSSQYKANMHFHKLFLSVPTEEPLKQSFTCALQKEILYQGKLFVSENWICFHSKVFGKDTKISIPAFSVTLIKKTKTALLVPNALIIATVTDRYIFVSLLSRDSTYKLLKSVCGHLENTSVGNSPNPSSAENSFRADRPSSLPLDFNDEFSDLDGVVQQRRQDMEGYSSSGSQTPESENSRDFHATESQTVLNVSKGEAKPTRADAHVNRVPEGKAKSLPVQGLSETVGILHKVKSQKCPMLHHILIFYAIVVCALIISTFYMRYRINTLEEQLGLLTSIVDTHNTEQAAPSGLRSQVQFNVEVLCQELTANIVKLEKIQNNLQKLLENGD
B2: Inactive peptidyl-prolyl cis-trans isomerase FKBP6 (Homo sapiens), O75344 (parent)
chain: MGGSALNQGVLEGDDAPGQSLYERLSQRMLDISGDRGVLKDVIREGAGDLVAPDASVLVKYSGYLEHMDRPFDSNYFRKTPRLMKLGEDITLWGMELGLLSMRRGELARFLFKPNYAYGTLGCPPLIPPNTTVLFEIELLDFLDCAESDKFCALSAEQQDQFPLQKVLKVAATEREFGNYLFRQNRFYDAKVRYKRALLLLRRRSAPPEEQHLVEAAKLPVLLNLSFTYLKLDRPTIALCYGEQALIIDQKNAKALFRCGQACLLLTEYQKARDFLVRAQKEQPFNHDINNELKKLASCYRDYVDKEKEMWHRMFAPCGDGSTAGES
partner: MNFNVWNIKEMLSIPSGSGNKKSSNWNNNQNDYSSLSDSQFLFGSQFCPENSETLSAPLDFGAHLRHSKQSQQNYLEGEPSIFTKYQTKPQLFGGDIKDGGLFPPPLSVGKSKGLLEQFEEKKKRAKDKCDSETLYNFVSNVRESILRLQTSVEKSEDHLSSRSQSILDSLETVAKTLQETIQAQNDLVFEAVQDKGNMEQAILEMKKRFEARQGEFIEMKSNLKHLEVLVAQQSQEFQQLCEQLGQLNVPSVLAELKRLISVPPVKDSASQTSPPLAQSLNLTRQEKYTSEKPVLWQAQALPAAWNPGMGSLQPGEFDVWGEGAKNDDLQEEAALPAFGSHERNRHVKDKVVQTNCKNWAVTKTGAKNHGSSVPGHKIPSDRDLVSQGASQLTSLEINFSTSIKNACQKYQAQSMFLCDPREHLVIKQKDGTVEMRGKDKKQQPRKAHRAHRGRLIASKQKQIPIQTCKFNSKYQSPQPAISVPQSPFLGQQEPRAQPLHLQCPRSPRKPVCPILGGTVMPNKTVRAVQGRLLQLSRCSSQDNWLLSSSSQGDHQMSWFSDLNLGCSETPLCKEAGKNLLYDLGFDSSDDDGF
B3: Disks large-associated protein 2 (Homo sapiens), Q9P1A6 (parent)
chain: MGTAQVLPGILQKHCCILPDRNTESQCTLCGEPEEEEAGDLVQPGISFPGPAEEDLDPQYSWSPTQHFNEERYSPAPRSMKGLSGSRTQPPLCSGHTCGLAPPEDCEHLHHGPDARPPYLLSPADSCPGGRHRCSPRSSVHSECVMMPVVLGDHVSSSTFPRMHYSSHYDTRDDCAVAHAGAKINRIPANLLDQFEKQLPLHRDGFHTLQYQRTSAAAEQRSESPGRIRHLVHSVQKLFTKSHSLEGSSKSNANGTKADGRADDHHHAHHAKHSKRSKSKERKPEGKPRPGMSSWWSSDDNLDSDSTYRTPSVLNRHHLGPVAHCYPDALQSPFGDLSLKTSKSNNDVKCSACEGLALTPDAKYLKRSSWSTLTVSQAKEAYRKSSLNLDKPLLHQDAKPALRPCHYLQVPQDEWGGYPTGGKDEEIPCRRMRSGSYIKAMGDEESGESDSSPKTSPKSAILPEPLLKSIGQRPLGEHQTQTYLQAASDVPVGHSLDPAANYNSPKFRSRNQSYMRAVSTLSQASCVSQVSEAEINGQFESVCESVFSEVESQAMDALDLPGCFRTRSHSYLRAIQAGYSQDDECIPMMTPSDITSTIRSTAAVSYTNYKKTPPPVPPRTTSKPLISVTAQSSTESTQDAYQDSRAQRMSPWPQDSRGLYNSTDSLDSNKAMNLALETAAAQRHLPESQSSSVRTSDKAILVSKAEELLKSRCSSIGIQDSEFPEHQPYPRSDVETATDSDTESRGLREYHSVGVQVEDEKRHGRFKRSNSVTAAVQADLELEGFPGHITTEDKGLQFGSSFQRHSEPSTPTQYSAVRTVRTQGLFSYREDYRTQVDTSTLPPPDPWLEPAIDTVETGRMSPCRRDGSWFLKLLHAETKRMEGWCKEMEREAEENDLSEEILGKIRSAVGSAQLLMSQKFQQFYWLCQQNMDPSAMPRPTSQDLAGYWDMLQLSIEDVSMKFDELQRLRLNDWKMMESPERKEERKVPPPIPKKPPKGKFPITREKSLDLPDRQRQEARRRLMAAKRAASFRQNSASERADSIEIYIPEAQTRL
partner: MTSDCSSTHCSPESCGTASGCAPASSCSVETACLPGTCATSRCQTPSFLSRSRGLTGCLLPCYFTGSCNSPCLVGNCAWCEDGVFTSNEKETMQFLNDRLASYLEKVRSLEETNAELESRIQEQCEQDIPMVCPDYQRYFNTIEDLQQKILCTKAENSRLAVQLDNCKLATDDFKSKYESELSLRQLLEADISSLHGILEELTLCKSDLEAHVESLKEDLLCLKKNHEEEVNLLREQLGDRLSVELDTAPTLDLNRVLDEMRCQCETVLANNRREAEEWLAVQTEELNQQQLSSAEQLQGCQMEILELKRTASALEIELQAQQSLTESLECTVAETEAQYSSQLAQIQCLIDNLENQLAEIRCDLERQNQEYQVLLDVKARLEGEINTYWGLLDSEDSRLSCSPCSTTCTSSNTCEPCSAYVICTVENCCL
B4: Atos homolog protein B (Homo sapiens), Q7L5A3 (parent)
chain: MRHVQAEPSPSSEPEAGPSQPPVRQGALQGGLLMGYSPAGGATSPGVYQVSIFSPPAGTSEPHRALKRQAPSTEGPRELKRGPGLGAREGLPPEEPSTVGLLGPEGPGLGLGVASQHFSHRGLCVVEQRSSVTSSWTSGAWSPPCPPSNASCNTLHTRDWASPDPGGQGSLGESPGPAPPGQLHTLDTDLHSLAQIGGKSPVAGVGNGGSLWPRESPGTANGHSPEHTPPGPGPPGPCPTKRRLLPAGEAPDVSSEEEGPAPRRRRGSLGHPTAANSSDAKATPFWSHLLPGPKEPVLDPTDCGPMGRRLKGARRLKLSPLRSLRKGPGLLSPPSASPVPTPAVSRTLLGNFEESLLRGRFAPSGHIEGFTAEIGASGSYCPQHVTLPVTVTFFDVSEQNAPAPFLGIVDLNPLGRKGYSVPKVGTVQVTLFNPNQTVVKMFLVTFDFSDMPAAHMTFLRHRLFLVPVGEEGNANPTHRLLCYLLHLRFRSSRSGRLSLHGDIRLLFSRRSLELDTGLPYELQAVTEAPHNPRYSPLP
partner: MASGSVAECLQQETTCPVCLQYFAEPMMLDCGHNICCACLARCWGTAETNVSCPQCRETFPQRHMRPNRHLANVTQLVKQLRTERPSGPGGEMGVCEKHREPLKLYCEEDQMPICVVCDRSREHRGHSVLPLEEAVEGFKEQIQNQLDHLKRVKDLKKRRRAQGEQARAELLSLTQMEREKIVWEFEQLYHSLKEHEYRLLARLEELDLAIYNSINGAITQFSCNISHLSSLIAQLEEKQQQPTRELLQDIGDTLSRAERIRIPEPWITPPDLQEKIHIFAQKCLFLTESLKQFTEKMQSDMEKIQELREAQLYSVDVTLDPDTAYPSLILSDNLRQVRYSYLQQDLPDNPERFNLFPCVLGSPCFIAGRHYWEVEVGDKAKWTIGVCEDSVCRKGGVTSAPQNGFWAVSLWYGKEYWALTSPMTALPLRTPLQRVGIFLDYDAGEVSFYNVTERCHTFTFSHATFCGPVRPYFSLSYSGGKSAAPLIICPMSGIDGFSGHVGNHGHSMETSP

Variants of: B1
Conditions: with grm2b_human GRAMD2B

Variant | effect of a mutation on the interaction
MLCLLLTLGVALVCGVPAMDIPQTKQDLELPKLAGTWHSMAMATNNISLMATLKAPLRVHITSLLPTPEDNLEIFLHRWENNSCVEKKVLGEKTENPKKFKINYTVANEATLLDTDYDNFLFLCLQDTTTPIQSMMCQYLARVLVEDDEIMQGFIRAFRPLPRHLWYLLDLKQMEEPCRF [V75F] | disrupting interaction strength

Variants of: B2
Conditions: with iho1_human IHO1, Q8IYA8

Variant | effect of a mutation on the interaction
MGGSALNQGVLEGDDAPGQSLYERLSQRMLDISGDRGVLKDVIREGAGDLVAPDASVLVKYSGYLEHMDRPFDSNYFRKTPRLMKLGEDITLWGMELGLLSMRRGELARFLFKPNYAYGTLGCPPLIPPNTTVLFEIELLDFLDCAESDKFCALSAEQQDQFPLQKVLKVAATEREFGNYLFRQNRFYDAKVRYKRALLLLRRRSAPPEEQHLVEAAKLPVLLNLSFTYLKLDRPTIALCYGEQAFIIDQKNAKALFRCGQACLLLTEYQKARDFLVRAQKEQPFNHDINNELKKLASCYRDYVDKEKEMWHRMFAPCGDGSTAGES [L246F] | disrupting interaction strength

Variants of: B3
Conditions: with KRT40, Q6A162

Variant | effect of a mutation on the interaction
R818T | with no effect

Variants of: B4
Conditions: with tri27_human TRIM27, P14373

Variant | effect of a mutation on the interaction
MRHVQAEPSPSSEPEAGPSQPPVRQGALQGGLLMGYSPAGGATSPGVYQVSIFSPPAGTSEPHRALKRQAPSTEGPRELKRGPGLGAREGLPPEEPSTVGLLGPEGPGLGLGVASQHFSHRGLCVVEQRSSVTSSWTSGAWSPPCPPSNASCNTLHTRDWASPDPGGQGSLGESPGPAPPGQLHTLDTDLHSLAQIGGKSPVAGVGNGGSLWPRESPGTANGHSPEHTPPGPGPPGPCPTKRRLLPAGEAPDVSSEEEGPAPRRRRGSLGHPTAANSSDAKATPFWSHLLPGPKEPVLDPTDCGPMGRRLKGARRLKLSPLRSLRKGPGLLSPPSASPVPTPAVSRTLLGNFEESLLRGRFAPSGHIEGFTAEIGASGSYYPQHVTLPVTVTFFDVSEQNAPAPFLGIVDLNPLGRKGYSVPKVGTVQVTLFNPNQTVVKMFLVTFDFSDMPAAHMTFLRHRLFLVPVGEEGNANPTHRLLCYLLHLRFRSSRSGRLSLHGDIRLLFSRRSLELDTGLPYELQAVTEAPHNPRYSPLP [C381Y] | disrupting interaction strength
